± gives the uncertainty stated by the source.

B1: GA-binding protein alpha chain, residues 172 to 250; numbered along this chain, Q06546 (parent)
chain: GYRKEQERLGIPYDPIQWSTDQVLHWVVWVMKEFSMTDIDLTTLNISGRELCSLNQEDFFQRVPRGEILWSHLELLRKY

In the series the parent is B1. Description: abundance fitness (aPCA) (normalised: wild type 0, dead -1); higher = more abundant; growth selection in yeast, the domain comes from the species named. The following applies: Homo sapiens.
As for GYRKEQERLGIPYDPIQWSTDQVLHWVVWVMKEFSMTDIDLTTLNISGRELCSLNQEDFFQRVPRGEILWSHLGLLRKY, the abundance fitness was -0.066 ± 0.041.
With GYRKEQERLGIPYDPIQWSTDQVLHWVVWVMKEFSMTDIDLTTLNISGRELCSLNQEDFFQRVPRGEILWSHLPLLRKY the figure was -0.904 ± 0.13; with GYRKEQERLGIPYDPIQWSTDQVLHWVVWVMKEFSMTDIDLTTLNISGRELCSLNQEDFFQRVPRGEILWSHLLLLRKY, -0.109 ± 0.04.
Consider GYRKEQERLGIPYDPIQWSTDQVLHWVVWVMKEFSMTDIDLTTLNISGRELCSLNQEDFFQRVPRGEILWSHLERLRKY, for which the abundance fitness is -0.012 ± 0.035.
Consider GYRKEQERLGIPYDPIQWSTDQVLHWVVWVMKEFSMTDIDLTTLNISGRELCSLNQEDFFQRVPRGEILWSHLEQLRKY, for which the abundance fitness is -0.08 ± 0.053.
With GYRKEQERLGIPYDPIQWSTDQVLHWVVWVMKEFSMTDIDLTTLNISGRELCSLNQEDFFQRVPRGEILWSHLEKLRKY, the abundance fitness was -0.122 ± 0.076.
Turning to GYRKEQERLGIPYDPIQWSTDQVLHWVVWVMKEFSMTDIDLTTLNISGRELCSLNQEDFFQRVPRGEILWSHLEHLRKY, the abundance fitness is 0.031 ± 0.068.
Under GYRKEQERLGIPYDPIQWSTDQVLHWVVWVMKEFSMTDIDLTTLNISGRELCSLNQEDFFQRVPRGEILWSHLEVLRKY stands -0.193 ± 0.027.
For the variant GYRKEQERLGIPYDPIQWSTDQVLHWVVWVMKEFSMTDIDLTTLNISGRELCSLNQEDFFQRVPRGEILWSHLEFLRKY, the abundance fitness was -0.136 ± 0.098.
Under GYRKEQERLGIPYDPIQWSTDQVLHWVVWVMKEFSMTDIDLTTLNISGRELCSLNQEDFFQRVPRGEILWSHLESLRKY stands 0.046 ± 0.039; under GYRKEQERLGIPYDPIQWSTDQVLHWVVWVMKEFSMTDIDLTTLNISGRELCSLNQEDFFQRVPRGEILWSHLETLRKY, 0.024 ± 0.074; under GYRKEQERLGIPYDPIQWSTDQVLHWVVWVMKEFSMTDIDLTTLNISGRELCSLNQEDFFQRVPRGEILWSHLEELRKY, 0.024 ± 0.058.
As for GYRKEQERLGIPYDPIQWSTDQVLHWVVWVMKEFSMTDIDLTTLNISGRELCSLNQEDFFQRVPRGEILWSHLEGLRKY, the abundance fitness is -0.132 ± 0.047.
For the variant GYRKEQERLGIPYDPIQWSTDQVLHWVVWVMKEFSMTDIDLTTLNISGRELCSLNQEDFFQRVPRGEILWSHLEALRKY, the abundance fitness is -0.02 ± 0.048.
For GYRKEQERLGIPYDPIQWSTDQVLHWVVWVMKEFSMTDIDLTTLNISGRELCSLNQEDFFQRVPRGEILWSHLEMLRKY, the abundance fitness is -0.042 ± 0.071.
With GYRKEQERLGIPYDPIQWSTDQVLHWVVWVMKEFSMTDIDLTTLNISGRELCSLNQEDFFQRVPRGEILWSHLEILRKY the figure was 0.107 ± 0.12.
With GYRKEQERLGIPYDPIQWSTDQVLHWVVWVMKEFSMTDIDLTTLNISGRELCSLNQEDFFQRVPRGEILWSHLEDLRKY, the abundance fitness is -0.022 ± 0.093.
Consider GYRKEQERLGIPYDPIQWSTDQVLHWVVWVMKEFSMTDIDLTTLNISGRELCSLNQEDFFQRVPRGEILWSHLEWLRKY, for which the abundance fitness was -0.104 ± 0.05.
As for GYRKEQERLGIPYDPIQWSTDQVLHWVVWVMKEFSMTDIDLTTLNISGRELCSLNQEDFFQRVPRGEILWSHLEYLRKY, the abundance fitness was 0.01 ± 0.16.
As for GYRKEQERLGIPYDPIQWSTDQVLHWVVWVMKEFSMTDIDLTTLNISGRELCSLNQEDFFQRVPRGEILWSHLELMRKY, the abundance fitness was -0.093 ± 0.11.
With GYRKEQERLGIPYDPIQWSTDQVLHWVVWVMKEFSMTDIDLTTLNISGRELCSLNQEDFFQRVPRGEILWSHLELKRKY the figure was -0.876 ± 0.28.
With GYRKEQERLGIPYDPIQWSTDQVLHWVVWVMKEFSMTDIDLTTLNISGRELCSLNQEDFFQRVPRGEILWSHLELTRKY the figure was -0.29 ± 0.059; with GYRKEQERLGIPYDPIQWSTDQVLHWVVWVMKEFSMTDIDLTTLNISGRELCSLNQEDFFQRVPRGEILWSHLELPRKY, -0.727 ± 0.083.
As for GYRKEQERLGIPYDPIQWSTDQVLHWVVWVMKEFSMTDIDLTTLNISGRELCSLNQEDFFQRVPRGEILWSHLELFRKY, the abundance fitness is -0.354 ± 0.061.
With GYRKEQERLGIPYDPIQWSTDQVLHWVVWVMKEFSMTDIDLTTLNISGRELCSLNQEDFFQRVPRGEILWSHLELCRKY the figure was -0.119 ± 0.05; with GYRKEQERLGIPYDPIQWSTDQVLHWVVWVMKEFSMTDIDLTTLNISGRELCSLNQEDFFQRVPRGEILWSHLELGRKY, -0.95 ± 0.08.
Under GYRKEQERLGIPYDPIQWSTDQVLHWVVWVMKEFSMTDIDLTTLNISGRELCSLNQEDFFQRVPRGEILWSHLELRRKY stands -0.677 ± 0.07; under GYRKEQERLGIPYDPIQWSTDQVLHWVVWVMKEFSMTDIDLTTLNISGRELCSLNQEDFFQRVPRGEILWSHLELIRKY, -0.236 ± 0.096; under GYRKEQERLGIPYDPIQWSTDQVLHWVVWVMKEFSMTDIDLTTLNISGRELCSLNQEDFFQRVPRGEILWSHLELARKY, -0.534 ± 0.048.
With GYRKEQERLGIPYDPIQWSTDQVLHWVVWVMKEFSMTDIDLTTLNISGRELCSLNQEDFFQRVPRGEILWSHLELERKY, the abundance fitness is -0.521 ± 0.091.
Under GYRKEQERLGIPYDPIQWSTDQVLHWVVWVMKEFSMTDIDLTTLNISGRELCSLNQEDFFQRVPRGEILWSHLELVRKY stands -0.182 ± 0.038.
Under GYRKEQERLGIPYDPIQWSTDQVLHWVVWVMKEFSMTDIDLTTLNISGRELCSLNQEDFFQRVPRGEILWSHLELWRKY stands -0.621 ± 0.065.
Regarding GYRKEQERLGIPYDPIQWSTDQVLHWVVWVMKEFSMTDIDLTTLNISGRELCSLNQEDFFQRVPRGEILWSHLELHRKY, the abundance fitness was -0.317 ± 0.19.
With GYRKEQERLGIPYDPIQWSTDQVLHWVVWVMKEFSMTDIDLTTLNISGRELCSLNQEDFFQRVPRGEILWSHLELQRKY the figure was -0.416 ± 0.094.
As to GYRKEQERLGIPYDPIQWSTDQVLHWVVWVMKEFSMTDIDLTTLNISGRELCSLNQEDFFQRVPRGEILWSHLELSRKY, the abundance fitness was -0.676 ± 0.06.

These data come from the Human Domainome abundance scans (Beltran et al. 2025).
